Publication PMC6630525 (Molecules, 2019)
“And” between values parts separate entries of the source, which are not always exact repeats. Equal entries are not always repeated.

Legend:
[1] = biological target: the molecule itself; assay: AUC; sedimentation velocity, 40,000 rpm, 20 °C, samples diluted in SEC buffer to OD280 0.5; c(s) distribution and non-interacting species model
[2] = biological target: the molecule itself; assay: SEC; analytical gel filtration, Superdex 200 10/300 GL, 4 °C, 20 mM Tris-HCl with 0.2, 0.5 or 2.0 M NaCl after dialysis into the same buffer
[3] = biological target: the molecule itself; assay: SAXS; ESRF BM29, samples at 5, 3 and 2 mg/mL, 10 °C; molecular mass estimated with ATSAS

B1: AtNRP2 NT/CT (AtNRP2 residues 14-223) (domain or fragment, Arabidopsis thaliana, UniProt Q8LC68-2 14-223, looked up)
chain: ENVEQIDAELVLSIEKLQEIQDDLEKINEKASDEVLEVEQKYNVIRKPVYDKRNEIIKTIPDFWLTAFLSHPALGELLTEEDQKIFKYLSSLDVEDAKDVKSGYSITFSFNPNPFFEDGKLTKTFTFLEEGTTKITATPIKWKEGKGLANGVNHEKNGNKRALPEESFFTWFSDAQHKEDVEDEMQDEQVADIIKEDLWPNPLTYFNNDA
notes: NAP1-related protein 2 (AtNRP2), Arabidopsis thaliana, residues 14-223 (first 13 and last 35 residues removed), in pGEX-6P-1 between BamHI and SalI; A few vector residues may remain at the N-terminus after PreScission cleavage (surmise); Heated at 40 °C for 10 min before crystallization; also called AtNRP2_(14-223); GST-AtNRP2_(14-223); not shown: GST, N-terminal, cleaved
stoichiometry N [1]: 2

B2: full-length Arabidopsis thaliana NAP1-Related Protein 1 (AtNRP1-His) (natural protein, UniProt Q9CA59 1-256, looked up)
chain: MVADKSKKSKIEEKGEEENLEQIDAELVLSIEKLQEIQDDLEKINEKASDEVLEVEQKYNVIRKPVYDKRNEVIQSIPGFWMTAFLSHPALGDLLTEEDQKIFKYLNSLEVEDAKDVKSGYSITFHFTSNPFFEDAKLTKTFTFLEEGTTKITATPIKWKEGKGLPNGVNHDDKKGNKRALPEESFFTWFTDAQHKEDAGDEIHDEVADIIKEDLWSNPLTYFNNDADEEDFDGDDDGDEEGEEDDDDEEEEDGEE
notes: NAP1-related protein 1 (AtNRP1), Arabidopsis thaliana; full-length ORF optimised for bacterial expression (Genscript) in pET22b(+) between NdeI and XhoI; also called full-length AtNRP1; not shown: His6, C-terminal, kept
binding result [2]: binds

B3: AtNRP1 NT/CT (AtNRP1 residues 14-226) (domain or fragment, Arabidopsis thaliana, UniProt Q9CA59 14-226, looked up)
chain: KGEEENLEQIDAELVLSIEKLQEIQDDLEKINEKASDEVLEVEQKYNVIRKPVYDKRNEVIQSIPGFWMTAFLSHPALGDLLTEEDQKIFKYLNSLEVEDAKDVKSGYSITFHFTSNPFFEDAKLTKTFTFLEEGTTKITATPIKWKEGKGLPNGVNHDDKKGNKRALPEESFFTWFTDAQHKEDAGDEIHDEVADIIKEDLWSNPLTYFNND
notes: NAP1-related protein 1 (AtNRP1), Arabidopsis thaliana, residues 14-226, in pGEX-6P-1 between BamHI and SalI; A few vector residues may remain at the N-terminus after PreScission cleavage (surmise); also called AtNRP1_(14-226); GST-AtNRP1_(14-226); not shown: GST, N-terminal, cleaved
stoichiometry N [3]: 2

B4: full-length Arabidopsis thaliana NAP1-Related Protein 2 (AtNRP2-His) (natural protein, UniProt Q8LC68-2 1-256, looked up)
chain: MVTDKSKKAKTEEENVEQIDAELVLSIEKLQEIQDDLEKINEKASDEVLEVEQKYNVIRKPVYDKRNEIIKTIPDFWLTAFLSHPALGELLTEEDQKIFKYLSSLDVEDAKDVKSGYSITFSFNPNPFFEDGKLTKTFTFLEEGTTKITATPIKWKEGKGLANGVNHEKNGNKRALPEESFFTWFSDAQHKEDVEDEMQDEQVADIIKEDLWPNPLTYFNNDADEEDFDGDDDGDEEEKEGDSDEDDDEEDEVGEE
notes: NAP1-related protein 2 (AtNRP2), Arabidopsis thaliana; full-length ORF optimised for bacterial expression (Genscript) in pET22b(+) between NdeI and XhoI; Predominantly a dimer in solution; tetramer and a higher species also seen by AUC; also called full-length AtNRP2; not shown: His6, C-terminal, kept
stoichiometry N [1]: 2 and 4
